Test results as given in publication PMC12693531, “Cooperativity in Escherichia coli L-Threonine Dehydrogenase and Its Inhibition by an Antibacterial N-Pyridylpyrazolone Derivative” (International Journal of Molecular Sciences, 2025).
Counter-ions that a name gives are not always drawn.

Experiments:
[1] = target: T1, L-threonine dehydrogenase (TDH) (Escherichia coli, UniProt P07913); assay: fluorimetric NADH formation assay, titration at […] L-Thr and […] NAD+; also affinity chromatography from E. coli lysate on immobilized compound […]; type: biochemical
T1 sequence (P07913 1-341): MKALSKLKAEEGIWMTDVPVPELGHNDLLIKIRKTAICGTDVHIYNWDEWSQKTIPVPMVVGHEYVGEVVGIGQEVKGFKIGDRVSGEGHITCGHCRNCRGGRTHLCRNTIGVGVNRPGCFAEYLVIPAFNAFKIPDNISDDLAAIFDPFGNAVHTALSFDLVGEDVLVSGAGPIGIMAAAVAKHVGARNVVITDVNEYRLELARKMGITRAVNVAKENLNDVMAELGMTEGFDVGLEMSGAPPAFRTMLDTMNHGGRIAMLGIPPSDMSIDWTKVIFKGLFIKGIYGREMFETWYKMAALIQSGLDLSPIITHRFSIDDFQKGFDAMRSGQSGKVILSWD

purified protein [2] = substrate: C[C@@H](O)[C@H](N)C(=O)O; assay: purified protein; type: biochemical, Escherichia coli; conditions: NAD+; Zn2+ cooperative binding of L-Thr; pH 8.4; 25.0 °C
purified protein [3] = substrate: NC(=O)c1ccc[n+]([C@@H]2O[C@H](COP(=O)([O-])OP(=O)(O)OC[C@H]3O[C@@H](n4cnc5c(N)ncnc54)[C@H](O)[C@@H]3O)[C@@H](O)[C@H]2O)c1; assay: purified protein; type: biochemical, Escherichia coli; conditions: Zn2+ non-cooperative binding; pH 8.4; 25.0 °C; varied: cofactor

`NCCc1c[nH]n(-c2ccccn2)c1=O` [compound 1, 4-(2-aminoethyl)-2-(pyridin-2-yl)-1,2-dihydro-3H-pyrazol-3-one dihydrochloride] showed an EC50 [1] of 50 ± 10 µM.

B1: L-threonine dehydrogenase (TDH) (Escherichia coli K-12) (protein)
chain: MKALSKLKAEEGIWMTDVPVPELGHNDLLIKIRKTAICGTDVHIYNWDEWSQKTIPVPMVVGHEYVGEVVGIGQEVKGFKIGDRVSGEGHITCGHCRNCRGGRTHLCRNTIGVGVNRPGCFAEYLVIPAFNAFKIPDNISDDLAAIFDPFGNAVHTALSFDLVGEDVLVSGAGPIGIMAAAVAKHVGARNVVITDVNEYRLELARKMGITRAVNVAKENLNDVMAELGMTEGFDVGLEMSGAPPAFRTMLDTMNHGGRIAMLGIPPSDMSIDWTKVIFKGLFIKGIYGREMFETWYKMAALIQSGLDLSPIITHRFSIDDFQKGFDAMRSGQSGKVILSWD
Work on B1 yielded a K0.5 (purified protein [2]) of 280 ± 10 µM, a Vmax (purified protein [2]) of 6 µM/min and a K0.5 (purified protein [3]) of 43 ± 3 µM. The Vmax (purified protein [3]) was 3.42 µM/min.
